Test results reported in the nanobody polyreactivity screen of Harvey et al. (2022).

Assay: yeast display, Sf9 membrane polyspecificity reagent, FACS + sequencing; frameworks hold sequencing errors
How it was run: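 Genes from sorted yeast were amplified by colony PCR, read by MiSeq 2 × 250 sequencing and filtered on CDR length. These cells carried a synthetic nanobody library in Saccharomyces cerevisiae BJ5465 and were sorted by FACS into low and high (top ~1%) gates on anti-HA and streptavidin fluorescence. Polyreactivity is labelled according to the gate of origin.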

Row | Sequence | polyreactivity (PSR sort gate)
1 | QVQLVESGGGLVQAGGSLRLSCAASGSTIVRYVMGWYRQAPGKERELVAAISRRGGSTYYADSVKGRFTISRDNAKNTVYLQMNSLKPEDTAVYYCARTVGYRTLLESDSWGQGTQVTVSS | high polyreactivity
2 | QVQIVESGGGLVQAGGSLRLSCAAYGRIFVPYAMGWYRPAPGKERELVAAITWRGGSTYYAYSVKGRFTISRDNAKNTVYLQMNSMNPDDTGVYYCNSDEASAGFWFSHLQLGMDYWGQGTQVTVSS | low polyreactivity
3 | QVQLVESGGGLVQAGGSLRLSCAASGSIFDDYAMGWYRQAPGKERELVAAITSGGSTYYADSVKGRFTISLDNAKNTVYLQMNSLKPEDTAVYYRATRYHWSSSFAPVGAYGYWGQATQVTVSS | low polyreactivity
4 | QVQLEESGGGLVQAGGTLRLSCAASGLNFSYNAMGWYRQAPGKERELVAAISYSGGSTYYPDSVKGRFTISRDNAKNTVYLQMNSLKPEDTAVYYCASDAWWLYYGYYYWGQGTQVTLSS | high polyreactivity
5 | QVQLVESGGGLVQAGGSLRLSCAASGFIFWYYAMGWYRQAPGKERELVAAISWSGTSTYYADSVKGRFTISRDNAKNTVYLQMNSLKPEDTAVYYCAAGPYSYYPLHAHYDYWGQGTQVTVSS | high polyreactivity
6 | QVQLVESGGGLVQAGGSLSLSCAASGFTFYSYTMGWYRQAPGKDREMVAAISGRSVRTYYADSVKGRFTISRDNAKNTVYLQMNSLKPEDTAVYYCARAYYWRTSWYNYWGQGTQVTVSS | high polyreactivity
7 | QVQLVESGGGLVQAGGSLRLSCAASGLIFGYYAMGWYRQAPGKERELVAVISYSGGSTYYADSVKGRFTITRDNAKNTVYLQMNSLNPEDTAVYYCNTYGAYYRHTKEYGYWGQGTQVTVSS | high polyreactivity
8 | QVQLVESGGGLVQAGGSLRLSCAASGFTFPGNAMGWYRHPPGKERELVAAISSTDRTTNADSVKGRFTISRDNAKNTGYLQMNSLKPEDTAVYYCYTATRRRPRGYWGQGTQVTVSS | high polyreactivity
9 | QVQLVESGGGLVQAGGSLRLSCAASGYIFSVNAMGWYRQAPGKERELVAAIRGSGGSTFYADSVKGRFTISRDNAKNTVYLQMNSLKPEDTAVYYCAAYWRGRYDYWGQGTQVTVSS | low polyreactivity
10 | QVQLVESGGGLVQAGGSLRLSCAASGRTFGYYGMGWYRQAPGKEREFFAAITRSGGSTYYADSVKGRFTISRDNAKNTVYLQMNSLKPEDTAVYYCAAAHLFTRSRPYDYWGQGTQVTVSS | high polyreactivity
11 | QVQLVESGGGLVQAGGSLRLSCASSGSIFSHYAMGWYRQAPGKERELVAAISRSGGSTYYADSVKGRFTISRDNAKNTVYLQMNSLKPEDTAVYYCAKEGDSGDWFDYWGQGTQVTVSS | low polyreactivity
12 | QDQLVESGGGLVQAGGSQRLSCAASGFTFRRYAMGWYRQEPGKERELVAVITTAGSTNYADSVKGRFTISRDNAKNTVYLPMNSLKPEDTAVYYCATDNGTRKGRYDYWGQGTQVTVSS | low polyreactivity
13 | FVQAGGSLRLSCAASGFIFGVYDMGWYRQAPGKERELVAAIDSVGSTYYADSVKGRFTISRDNAKNTVYLQMNSLNPEDTAVYYCAKDGSYQAYGYWGQGTQVTVSS | low polyreactivity
14 | QVQLVESGGGLVQAGGSLRLSCAASGSTFYSNAMGWYRQAPGKERELVARISWIGTSTYYADSVKGRFTISRDNAKNTVYLQMNSLKPEDTAVYDCAAGTVGPRRRRYIWLDYWGQGTQVTVSS | high polyreactivity
15 | QVQLVESRGGLVQAGGSLRFSCAASGSTFRDYAMGGSRQAPGKERQVLAAISSTGGRTYYADSVKGRFTISRDNAKNTVYLQMNSLKPEDTAVYYCKAALYPSLDYGSASISKSYDYWGQGTQVTVSS | high polyreactivity
16 | QVQLVESGGGLVQAGGSLRLSCAASGRTFGTYAMGWYIQAPGKERELVAAIRSNAGSTYYADSVKGRFTISRDNAKNTVYLQMNSLKPEDNAVYYCAKSYRCSRRYNYWGQGTQVTVSS | high polyreactivity
17 | QVQLVESGGGLVQAGGSLRLSCAASGFTIRSYVMGWYRQAPGKEREFVAAISYRGGGTNYADSVKGRFTISRDNAKNTVYLQMNSLKPEDTAVYYCNARSGSSKSGYYYWGQGTQVTVSS | high polyreactivity
18 | QVQLVESGGGLVQAGGSLRLSCAASGRIFAWYAMGWYRQAPGKEREFVAAISRGGSTYYADSVKGRFTISRDNAKNTVYLQMNSLKPEDTAVYYCAASSPSSGRFDYWGQGTQVTVSS | high polyreactivity
19 | QVQLVESGGGLVQAGGSLRLSCAASGSIFIPNAMGWYRQAPGKERELVAAISLSDTTTYYADSVKGRFTISRDNAKNTVYLKMNSLKPEDTAVYYCAADYWFYPTSPDMDYLGQGTQVTVSS | low polyreactivity
20 | QVQLVESGGGLVQAGGSLRLSCAASGRTFGPYAMGWYRQPPGKEREFVAAISYSGGSTYYADSVKGRLTISRDNAKNTVDLQMNSLKPEVTAVYYCAVDIDANSGTRDYWGQGTQVTVSS | low polyreactivity
21 | QVQLVESGGGLVQAGGSLRLSCAASGRTIDSYAMGRNRQAPGKERELVAAISWGGGSTYYADSVKGRFTISRDNAKNTVYLQMNSLKPEDTAVYYCAARWNYTEFDYWGQGTQVTVSS | low polyreactivity
22 | QVQLVELGGGLVQAGGSLRLSCAASGLTLYYYAMGWYRQEPGKERELVAAINRGGSTYYADSVKGRFTISRDNAKNTVYLQMNSLKPEATAVYYCAVDYGVRDLTYYYWGQGTQVTVSS | low polyreactivity

Row | Sequence | polyreactivity (PSR sort gate)
23 | QVQLVESGGGLVQAGGSLRLSCAASGSIFGYYSMGWYRQAPGKERELVAAISRSGTRTYYADSVKGRFTISRDNAKNTVYVQMNSLKPEDTAVYYCNAVQQYYGTWGYGYWGQGTQVSVSS | high polyreactivity
24 | QVQLVESGGGLVQAGGSHRLSCAASGSIFAIYAMGWYRQAPGKERELVAAISSSSGSTYYADSVKGRFTISRDNAKNTVYLQMNSLKPEDTAVYYCAAESGRRIKYWRGYYYWGQGTQVTVSS | low polyreactivity
25 | QVQLVESGGGLVQAGGSLRLSCAASGFTFVYYVMGWYRQAPGKERELVAAIRSGDGNTHYADTEKGRFTISRDNAKNTVYLQMNSLKPEDTAVYYCAASSRTFGYKYFYWGQGTQVTVSS | high polyreactivity
26 | QVQLVEAGGGLVQAGGSLRLSCAASGSTFSYAMGWYRQAPGKETELVAAITIGGRTSYADSVKGRFTISRDNAKNTVYLQMNSLKPEDTAVYYCAAEGYYPVYYYVYYGFDYWGQGTQVTVSS | low polyreactivity
27 | QVQLVESGGGLDQAGGSLRLSCAASVSNFEYYVMGWYRQAPGTERELVAVIRRSSGSTYYADSVKGRFTISRDNAKNTVYLQMNSLKPEDTAVYYCAARRYEPIIWHRMDYCGQGTQVTVSS | low polyreactivity
28 | QVQLVESGGGLVHAGGRLRLSCPPSGRIFSYYTMGWYRQAPGKERELVAAISRGVSTNYADSVKGRFTISRDNAKNTVYLQMNSLKPEYSAVYYCNARHTWYYKYLHEYWGQGTQVTVSS | high polyreactivity
29 | QVQLVESGGGLLQAGGILRLSCAASGRIFFANAMGWYRQAPGKERELVASITRRSGGTYYADSVKGRFTISRDNAKNTVYLQMNSLKPEDTAVYYCAARYTFPKALYYYWGQGTQVTVSS | high polyreactivity
30 | QVQLVESGGGLVQAGGSLRLSCAASGSTFQLYVMGWYRQAPGKERELVAAIDDGGGSTYYADSVKGRFTISRDNAKNTVYLQMNSLKPEDTAVYYCARRYGYFGYEYDYWGQGTQVTVSS | high polyreactivity
31 | QVQLVESGGGLVQAGGSLRLSCAASGSIFPTYVMGWYRQAPGKERELVAAISARGDSTYADSVKGRFTISRDNAKNTVYLQMNSLKPEDTAVYYCAKSAHSDYVYSRLEFGYWGQGTQVTVSS | low polyreactivity
32 | QVQLVESGGGLVQAGGSLRLSCAASGSTSNLYAMGWYIQAPGKERELVAAITSIDGGTYYADSVKGRFTISRDNAKNTVYLQMNSLKAEDTAVYYCNAEDRFFYWGGYDYWGQGTQVTVSS | low polyreactivity
33 | QVQLVESGGGLVQAGGSLRLSCAASGLTFEKYAMGWYRQAPGKERELVAAISQDGGSTYYADSVKGRFTISRDNAKNTVYLQMNSLKPEDTAVYYCAAEDPDSWLPWHLYDYWGQGTQVTVSS | low polyreactivity
34 | QVQLVESGGGLVQAGGSLRLSCAASGRIFYRNAMGWYRQAPGKERELVAAITIGTNTYYADSVKGRFTISRDNAKITVYLQMNSLKPEDTAVYYCAVAVFLYTGGVDYWGQGTQVTVSS | low polyreactivity
35 | QVQLQESGGGLVQAGGSLRLGCAASGNISDAGYMGWYRQAPGKEREFVAAIAAGSNTNYADSVKGRFTISRDNAKNTVYLQMNSLKPEDTAVFYCAVGSYARVQYEYWGQGTQVTVNS | low polyreactivity
36 | QVQLVESGGGLVQAGGSLRLSCAASGTTFLINAMGWYRQAPGKERELVATISSGGSTYYADSVKGRFTISRDNAKNNVYLQMNSLKPEDTAVYFCAADPDRTAYDYWGQGTQVTVSS | low polyreactivity
37 | QVQLVESGGGLVQAGGSLRLSCAASGLTFSIYAMGWYRQAPGKERELVAAISSTGSTNYADSVKGRFTISRDNAKNTVYLQMNSLKPEDTAVYYCAAELQPSPVGGIIQYGFDYWGQGTQVTVSS | low polyreactivity
38 | QVQLVESGGGLVQAGGSLRLSCAASGFTFGVYALGGYRQAPGKEREFVAAISRSGSSTYYADSVKGRFTISRDNAKNTVYLQMNSLKPEDTAVYYCAKRSGNRYSFDYWGQGTQVTVSS | high polyreactivity
39 | QVQLVESGGGLVQAGGSLRLSCAASGFTFAFYTLGWYIQATGKETELVASISWRSGSTYYADSVKGRFTISRDNAKNSVYLQMNSLNPDDTAVYYCAADSAVSWFFYCGQGTQVTVSS | high polyreactivity
40 | QVQLVESGGGLVQEGGSLRLSCAASGIIFGYNAMGWYRQAPGKERELVAAISRRGGTTYYADSVKGRLTISRDNSKNTVYLQMNSLKPEDTAVYYCAAQWSPTEHEYNYSGQGTQVTVSS | low polyreactivity
41 | QVQLVESGGGLVQAGGSLRLSCAASGRIFGAYAMGWYRQAPGKERELVAAINRGGSTNYADSVKGRFTISRDNAKNTVYLQMNSLKPEDTAVYYCAKRSSGRHFTYDYWGQGTQVTVSS | low polyreactivity
42 | QVQLVESGGGLVQAGGSLRLSCAASGVIFESNAMAWYRQAPGKERELVAANTKRGGSTYYADSVKGRFTISRDNAKNTVYLQMKSLKPEDTAVYYCNALGYWRRVVDGFDNWGQGTQVTVSS | high polyreactivity
43 | QVQLVESGGGLVQAGGSLRLSCAASGLTLTPYVMGWYRQAPGKEREFVAAITYTGGRTYYADSVKGRFTISRDNAKNTVYLKMNSLKPEDTAVYDCNKGYYQTWPRYYSWGQGTQVTVSS | high polyreactivity
